Where no end group is shown, it is not given here. [ ]: non-standard residue; d: D form.
T1: formyl peptide receptor (UniProt P21462 1-350, limits assumed)
T1 sequence (looked up): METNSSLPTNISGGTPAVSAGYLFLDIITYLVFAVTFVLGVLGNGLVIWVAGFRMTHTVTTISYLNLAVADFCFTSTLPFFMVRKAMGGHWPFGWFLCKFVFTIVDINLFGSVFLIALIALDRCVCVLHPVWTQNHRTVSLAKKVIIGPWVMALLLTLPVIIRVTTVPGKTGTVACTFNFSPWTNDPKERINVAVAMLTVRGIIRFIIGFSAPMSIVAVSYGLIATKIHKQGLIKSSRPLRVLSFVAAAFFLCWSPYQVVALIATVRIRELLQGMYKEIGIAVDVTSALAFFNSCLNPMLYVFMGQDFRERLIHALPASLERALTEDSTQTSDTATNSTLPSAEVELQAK

T2: formyl peptide receptor-like 1 (UniProt P25090 1-351, limits assumed)
T2 sequence (looked up): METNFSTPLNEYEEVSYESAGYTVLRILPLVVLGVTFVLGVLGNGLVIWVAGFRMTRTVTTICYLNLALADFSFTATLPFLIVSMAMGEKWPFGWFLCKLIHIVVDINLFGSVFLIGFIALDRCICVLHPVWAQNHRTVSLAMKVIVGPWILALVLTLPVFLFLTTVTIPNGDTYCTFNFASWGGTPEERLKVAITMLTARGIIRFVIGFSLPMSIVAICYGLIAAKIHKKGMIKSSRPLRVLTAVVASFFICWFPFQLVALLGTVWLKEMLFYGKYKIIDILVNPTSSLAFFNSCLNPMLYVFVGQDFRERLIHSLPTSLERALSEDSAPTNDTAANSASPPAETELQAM

B1: Trp-Lys-Glu-Met-Val-D-Met-NH2 (peptide)
peptide: WKEMV[dM]-NH2
modifications: N-terminus assumed
SMILES: CSCC[C@H](NC(=O)[C@H](CCC(=O)O)NC(=O)[C@H](CCCCN)NC(=O)[C@@H](N)Cc1c[nH]c2ccccc12)C(=O)N[C@H](C(=O)N[C@H](CCSC)C(N)=O)C(C)C
B2: Trp-Lys-Trp-Met-Val-D-Met-NH2 (peptide)
peptide: WKWMV[dM]-NH2
modifications: N-terminus assumed
SMILES: CSCC[C@H](NC(=O)[C@H](Cc1c[nH]c2ccccc12)NC(=O)[C@H](CCCCN)NC(=O)[C@@H](N)Cc1c[nH]c2ccccc12)C(=O)N[C@H](C(=O)N[C@H](CCSC)C(N)=O)C(C)C
B3: Trp-Arg-Tyr-Met-Val-D-Met-NH2 (peptide)
peptide: WRYMV[dM]-NH2
modifications: N-terminus assumed
SMILES: CSCC[C@H](NC(=O)[C@H](Cc1ccc(O)cc1)NC(=O)[C@H](CCCNC(=N)N)NC(=O)[C@@H](N)Cc1c[nH]c2ccccc12)C(=O)N[C@H](C(=O)N[C@H](CCSC)C(N)=O)C(C)C
B4: Trp-His-Tyr-Met-Val-D-Met-NH2 (peptide)
peptide: WHYMV[dM]-NH2
modifications: N-terminus assumed
SMILES: CSCC[C@H](NC(=O)[C@H](Cc1ccc(O)cc1)NC(=O)[C@H](Cc1c[nH]cn1)NC(=O)[C@@H](N)Cc1c[nH]c2ccccc12)C(=O)N[C@H](C(=O)N[C@H](CCSC)C(N)=O)C(C)C
B5: Trp-Glu-Tyr-Met-Val-D-Met-NH2 (peptide)
peptide: WEYMV[dM]-NH2
modifications: N-terminus assumed
SMILES: CSCC[C@H](NC(=O)[C@H](Cc1ccc(O)cc1)NC(=O)[C@H](CCC(=O)O)NC(=O)[C@@H](N)Cc1c[nH]c2ccccc12)C(=O)N[C@H](C(=O)N[C@H](CCSC)C(N)=O)C(C)C
B6: Trp-Lys-Tyr-Met-Tyr-D-Met-NH2 (peptide)
peptide: WKYMY[dM]-NH2
modifications: N-terminus assumed
SMILES: CSCC[C@H](NC(=O)[C@H](Cc1ccc(O)cc1)NC(=O)[C@H](CCCCN)NC(=O)[C@@H](N)Cc1c[nH]c2ccccc12)C(=O)N[C@@H](Cc1ccc(O)cc1)C(=O)N[C@H](CCSC)C(N)=O
B7: Trp-Lys-Asp-Met-Val-D-Met-NH2 (peptide)
peptide: WKDMV[dM]-NH2
modifications: N-terminus assumed
SMILES: CSCC[C@H](NC(=O)[C@H](CC(=O)O)NC(=O)[C@H](CCCCN)NC(=O)[C@@H](N)Cc1c[nH]c2ccccc12)C(=O)N[C@H](C(=O)N[C@H](CCSC)C(N)=O)C(C)C
B8: Trp-Lys-His-Met-Val-D-Met-NH2 (peptide)
peptide: WKHMV[dM]-NH2
modifications: N-terminus assumed
SMILES: CSCC[C@H](NC(=O)[C@H](Cc1c[nH]cn1)NC(=O)[C@H](CCCCN)NC(=O)[C@@H](N)Cc1c[nH]c2ccccc12)C(=O)N[C@H](C(=O)N[C@H](CCSC)C(N)=O)C(C)C
B9: Trp-Lys-Phe-Met-Val-D-Met-NH2 (peptide)
peptide: WKFMV[dM]-NH2
modifications: N-terminus assumed
SMILES: CSCC[C@H](NC(=O)[C@H](Cc1ccccc1)NC(=O)[C@H](CCCCN)NC(=O)[C@@H](N)Cc1c[nH]c2ccccc12)C(=O)N[C@H](C(=O)N[C@H](CCSC)C(N)=O)C(C)C
B10: Tyr-Met-Val-D-Met-NH2 (peptide)
peptide: YMV[dM]-NH2
B11: Trp-Asp-Tyr-Met-Val-D-Met-NH2 (peptide)
peptide: WDYMV[dM]-NH2
modifications: N-terminus assumed
SMILES: CSCC[C@H](NC(=O)[C@H](Cc1ccc(O)cc1)NC(=O)[C@H](CC(=O)O)NC(=O)[C@@H](N)Cc1c[nH]c2ccccc12)C(=O)N[C@H](C(=O)N[C@H](CCSC)C(N)=O)C(C)C
B12: Lys-Tyr-Met-Val-NH2 (peptide)
peptide: KYMV-NH2
B13: Met-Val-D-Met-NH2 (peptide)
peptide: Met-Val-[dM]-NH2
modifications: N-terminus assumed
SMILES: CSCC[C@H](N)C(=O)N[C@H](C(=O)N[C@H](CCSC)C(N)=O)C(C)C
B14: Trp-Lys-Tyr-Met-Gly-D-Met-NH2 (peptide)
peptide: WKYMG[dM]-NH2
modifications: N-terminus assumed
SMILES: CSCC[C@H](NC(=O)[C@H](Cc1ccc(O)cc1)NC(=O)[C@H](CCCCN)NC(=O)[C@@H](N)Cc1c[nH]c2ccccc12)C(=O)NCC(=O)N[C@H](CCSC)C(N)=O
B15: Trp-Lys-Tyr-Met-Val-Val-NH2 (peptide)
peptide: WKYMVV-NH2
B16: Trp-Lys-Tyr-Met-Val-Trp-NH2 (peptide)
peptide: WKYMVW-NH2
B17: Trp-Lys-Arg-Met-Val-D-Met-NH2 (peptide)
peptide: WKRMV[dM]-NH2
modifications: N-terminus assumed
SMILES: CSCC[C@H](NC(=O)[C@H](CCCNC(=N)N)NC(=O)[C@H](CCCCN)NC(=O)[C@@H](N)Cc1c[nH]c2ccccc12)C(=O)N[C@H](C(=O)N[C@H](CCSC)C(N)=O)C(C)C
B18: Trp-Lys-Gly-Met-Val-D-Met-NH2 (peptide)
peptide: WKGMV[dM]-NH2
modifications: N-terminus assumed
SMILES: CSCC[C@H](NC(=O)CNC(=O)[C@H](CCCCN)NC(=O)[C@@H](N)Cc1c[nH]c2ccccc12)C(=O)N[C@H](C(=O)N[C@H](CCSC)C(N)=O)C(C)C
B19: Trp-Lys-Tyr-Met-Val-Arg-NH2 (peptide)
peptide: WKYMVR-NH2
B20: Trp-Lys-Tyr-Met-Val-Glu-NH2 (peptide)
peptide: WKYMVE-NH2
B21: Trp-Lys-Tyr-Met-Val-NH2 (peptide)
peptide: WKYMV-NH2
B22: Trp-Lys-Tyr-Met-Val-Gly-NH2 (peptide)
peptide: WKYMVG-NH2

target: T1, formyl peptide receptor; assay: cell-based or functional assay

Binder	EC50 of intracellular calcium increase in FPR-expressing RBL-2H3 cells (fura-2) [nM]
B1	1330
B2	18.8
B3	54.9
B4	31.7
B5	317
B6	665
B7	1330
B8	280
B9	17.7
B10	569
B11	98.9

target: T2, formyl peptide receptor-like 1; assay: cell-based or functional assay

Binder	EC50 of intracellular calcium increase in FPRL1-expressing RBL-2H3 cells (fura-2) [nM]
B1	28.3
B12	> 30000
B13	> 30000
B2	0.16
B3	0.12
B4	0.72
B5	5.23
B14	18.1
B15	1260
B16	194
B6	0.29
B7	8.73
B8	1.94
B9	0.23
B17	2.06
B18	21.3
B19	178
B20	503
B10	17.1
B21	918
B22	5950
B11	14.3

target: T1, formyl peptide receptor; assay: cell-based or functional assay; remark: another data set of the same source

Binder	[Ca^2+]i increase in FPR-expressing RBL-2H3 cells [µM]
B14	> 20
B15	> 20
B16	> 20
B18	> 20
B19	> 20
B20	> 20
B22	> 20

Source: patent US20070219139A1 (POSCO, published 2007)
